Legend:
[1] = test system: pro-ICA512; experiment: Immunoblot for pro-ICA512 and ICA512-TMF in INS-1 cells; format: cell-based, rat
Description: (§1) Culture of INS-1 cells. INS-1 cells were grown as described^27. In some instances cells were pre-incubated for 1 hour in resting buffer (0 mM glucose, 5 mM KCl) and then for 2 or 6 hours in resting or stimulating (25 mM glucose, 55 mM KCl) buffers as described^7. Calpeptin (Calbiochem) was added in the last 15 minutes of the pre-incubation, and then for the entire following period before cells were harvested. Cells were stimulated with 20 nM human growth hormone (hGH) for 20 minutes following 18 hours incubation in low serum medium (LSM) containing RPMI-1640, 11 mM glucose, 0.5% FBS 25 mM HEPES, 1% penicillin-streptomycin and 0.05 mM β-mercaptoethanol. After washing, cells were either harvested or incubated in LSM for 6 additional hours. For immunoprecipitation cells were collected 1 hour after stimulation with hGH.
Cell extracts and western blotting. INS-1 cells and pancreatic islets were harvested at 4° C. in RIPA buffer [50 mM Tris-HCl at pH 8.0, 150 mM NaCl, 1% NP-40, 0.1% SDS, 0.5% sodium deoxycholate, and 1× protease inhibitor cocktail (Sigma)] to obtain total extracts. Insoluble material was removed by centrifugation. Cytosolic and nuclear extracts were prepared using the NE-PER Nuclear and Cytoplasmic Extraction Reagents (Pierce). Proteins were separated by 8-10% SDS-PAGE and immunoblotted with the following antibodies: mouse monoclonals anti-ICA512^7, anti-STAT5 (Santa Cruz), anti-γ-tubulin and anti-HA (Sigma); rabbit anti-PY-STAT5 and anti-STAT3 (Cell Signaling); affinity purified goat anti-GFP IgGs. Chemiluminescence was developed using the Supersignal West Pico or Femto kits (Pierce) and detected with a LAS 3000 Bioimaging System (Fuji). Protein signals were quantified with the Image Gauge v3.45 software (Fuji). Half the amount of nuclear extract proteins were immunoblotted relative to total and cytosolic extract proteins.

[2] = test system: Insulin mRNA; experiment: Insulin mRNA levels by real-time PCR in INS-1 cells; format: cell-based, rat
Description: Time-course stimulation of INS-1 cells. INS-1 ceils were incubated for 1 hr. in resting buffer (2.8 mM glucose and 5 mM KCl), then for 6 hrs. in resting or stimulating buffer, with or without 40 μM calpeptin, and then again in resting buffer for up to 24 hrs. Total RNA for real-time PCR was collected at time 0, 2 and 6 hrs. during stimulation and at 2, 6, 12 and 24 hrs. during the following resting period.
Real-time PCR. Total RNA from INS-1 cells was isolated with Trizol (Invitrogen, Karlsruhe, Germany) according to the manufacturer's protocol. 1 μg of total RNA was used for the reverse transcriptase reaction, with 2 μM specific antisense primers for […] and insulin, as described (31). mRNA expression was measured by quantitative real-time PCR using the Brilliant SYBR Green QPCR (Stratagene, La Jolla, Calif.) with an Mx4000 Multiplex Quantitative Real Time PCR System (Stratagene).

[3] = test system: STAT5; experiment: Firefly luciferase reporter assay for STAT activity (8GLE-CAS-FL) in INS-1 cells; format: cell-based, rat; settings: co-transfected INS-1 cells, hGH stimulation
Description: Firefly luciferase assays. INS-1 cells were co-transfected with 8GLE-CAS-FL and one or two of the following plasmids: pEGFP, ICA512-CCF-GFP, ICA512-CCF(K/A^754)-GFP and PIASy-GFP. Two days after transfection, cells were incubated in low serum medium for 18 hrs, then stimulated with 20 nM hGH for 20 minutes, and finally left in resting buffer for 6 additional hours. Cells were harvested in 500 μl lysis reagent for luciferase assays (Promega) and 10 μl were used for measurement of luciferase activity in a Berthold luminometer. Each sample was performed in triplicate and the data represent the mean of at least 2 independent experiments.

[4] = test system: GLE of the rat insulin I gene promoter; experiment: Chromatin immunoprecipitation, GLE of rat insulin I gene promoter; format: binding; settings: stable INS-1 cells, anti-GFP antibodies vs control IgG
[5] = test system: INS-1 cells; experiment: Uridine incorporation in INS-1 cells; format: cell-based, rat; settings: relative to GFP-transfected INS-1 cells
[6] = test system: ICA512 mRNA; experiment: ICA512 mRNA by real-time PCR in INS-1 cells; format: cell-based, rat; settings: transfected INS-1 cells vs cells expressing GFP alone
Description: PCR and real-time PCR. Cytosolic mRNA was isolated with the Oligotex Direct mRNA kit (Qiagen) according to the manufacturer's protocol. PolyA^+-enriched RNA was reverse transcribed with specific antisense primers for ICA512 and β-actin as described^8. Amplification of a 200 bp fragment flanking the GLE in the rat insulin1 (rINS1) gene promoter by PCR and real-time PCR was performed with the following primers: sense [NT], antisense [NT]. Amplification of ICA512 and β-actin was performed as described^16.

[7] = test system: STAT5b; experiment: Nuclear levels of STAT5b, PY-STAT5 and STAT3 in INS-1 cells (immunoblot); format: cell-based, rat
Description: as §1
Cell extracts and western blotting. INS-1 cells and pancreatic islets were harvested at 4° C. in RIPA buffer [50 mM Tris-HCl at pH 8.0, 150 mM NaCl, 1% NP-40, 0.1% SDS, 0.5% sodium deoxycholate, and 1× protease inhibitor cocktail (Sigma)] to obtain total extracts. Insoluble material was removed by centrifugation. […] Chemiluminescence was developed using the Supersignal West Pico or Femto kits (Pierce) and detected with a LAS 3000 Bioimaging System (Fuji). Protein signals were quantified with the Image Gauge v3.45 software (Fuji). […]

[8] = test system: GLE of rat insulin 1; experiment: EMSA with biotinylated GLE oligonucleotide of rat insulin 1 promoter; format: binding; settings: nuclear extracts of INS-1 cells expressing increasing amount of construct
[9] = target: T1, STAT5b (Rattus norvegicus, UniProt P52632); experiment: Co-immunoprecipitation with anti-GFP antibodies from INS-1 extracts; format: binding; settings: hGH-stimulated INS-1 cells
T1 construct: endogenous in cells; host or cells: INS-1 cells transiently transfected with ICA512-CCF-GFP
T1 sequence (P52632 1-786): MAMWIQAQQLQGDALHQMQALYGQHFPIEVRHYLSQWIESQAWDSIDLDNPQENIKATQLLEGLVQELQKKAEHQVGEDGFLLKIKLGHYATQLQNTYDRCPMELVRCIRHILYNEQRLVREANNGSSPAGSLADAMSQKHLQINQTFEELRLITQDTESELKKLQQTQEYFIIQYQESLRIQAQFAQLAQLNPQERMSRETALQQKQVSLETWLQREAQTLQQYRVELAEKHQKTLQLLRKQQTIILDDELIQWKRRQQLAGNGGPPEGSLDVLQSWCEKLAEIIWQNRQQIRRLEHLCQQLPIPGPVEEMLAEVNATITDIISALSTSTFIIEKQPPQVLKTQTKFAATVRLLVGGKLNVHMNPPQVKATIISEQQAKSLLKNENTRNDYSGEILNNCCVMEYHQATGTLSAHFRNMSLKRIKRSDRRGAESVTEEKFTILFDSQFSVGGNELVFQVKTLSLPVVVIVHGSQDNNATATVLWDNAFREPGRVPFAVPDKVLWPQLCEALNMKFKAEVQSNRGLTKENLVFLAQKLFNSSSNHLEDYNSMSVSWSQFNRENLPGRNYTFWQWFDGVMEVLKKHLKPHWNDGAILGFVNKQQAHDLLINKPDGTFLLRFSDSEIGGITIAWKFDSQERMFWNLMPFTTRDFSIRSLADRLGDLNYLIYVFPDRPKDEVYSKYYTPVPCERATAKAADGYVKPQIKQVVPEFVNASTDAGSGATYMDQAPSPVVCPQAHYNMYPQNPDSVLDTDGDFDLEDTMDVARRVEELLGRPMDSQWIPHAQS
Description: Immunoprecipitation. INS-1 cells were transiently transfected With one or more of the following constructs: GFP, ICA512-CCF-GFP, ICA512-CCF(K/A^754)-GFP, SUMO-1 and HA-SUMO-1. Anti-GFP IgGs were used for immunoprecipitations from total or cytosolic extracts. Immunoprecipitates were immunoblotted with anti-STAT5b, anti-PY-STAT5, anti-GFP or anti-HA antibodies. 600 μg and 200 μg protein were used as starting material for immunopreciptation of sumoylated ICA512 and STAT5, respectively.

B1: ICA512-CCF-GFP: ICA512 cytoplasmic fragment generated by μ-calpain, residues 659-979, fused at its C-terminus with GFP (protein)
chain: SQFSDAAQASPSSHSSTPSWCEEPAQANMDISTGHMILAYMEDHLRNRDRLAKEWQALCAYQAEPNTCATAQGEGNIKKNRHPDFLPYDHARIKLKVESSPSRSDYINASPIIEHDPRMPAYIATQGPLSHTIADFWQMVWESGCTVIVMLTPLVEDGVKQCDRYWPDEGASLYHVYEVNLVSEHIWCEDFLVRSFYLKNVQTQETRTLTQFHFLSWPAEGTPASTRPLLDFRRKVNKCYRGRSCPIIVHCSDGAGRTGTYILIDMVLNRMAKGVKEIDIAATLEHVRDQRPGLVRSKDQFEFALTAVAEEVNAILKALPQ
modifications: left off: large carriers
notes: ICA512 cytoplasmic fragment generated by μ-calpain, residues 659-979, fused at its C-terminus with GFP
[1]; transfected INS-1 cells vs GFP
  ICA512-TMF levels: also increased
[1]; transfected INS-1 cells vs cells expressing GFP alone
  pro-ICA512 increase: 40%
[2]; 0.5-4 μg construct, 4 days in culture with 11 mM glucose
  insulin mRNA levels vs amount of construct expressed: correlation between the increased expression of ICA512 (659-979)-GFP and the enhancement of insulin mRNA levels
[2]; resting INS-1 cells transiently transfected, vs electroporated cells
  Insulin mRNA increase: 93%
[2]; stimulated transfected INS-1 cells
  further increase of insulin mRNA by stimulation: 60%
[3]
  STAT5 transcription activity (8GLE-CAS-FL luciferase): partially restored
[4]
  co-immunoprecipitation of GLE of the rat insulin I gene promoter: co-immunoprecipitated with anti-GFP antibodies
[5]
  total incorporation of 3H-uridine: 270%
[6]
  ICA512 mRNA increase: 81%
[7]; INS-1 cells transfected with increasing amount of construct
  STAT5b and STAT3 in the nucleus: dose-dependent increase
[7]; hGH 20 nM 20 min, ICA512-CCF-GFP vs GFP cells, AD/DA mutant vs ICA512-CCF-GFP cells
  Nuclear STAT5b and nuclear PY-STAT5: clearly increased
[8]
  binding of a factor, conceivably STAT5b, to the GLE oligonucleotide: positive correlation
[9]
  co-immunoprecipitation of STAT5b and PY-STAT5: co-immunoprecipitated

Reference: patent US20090131309A1, “ICA512 COUPLES INSULIN SECRETION AND GENE EXPRESSION IN BETA-CELLS” (Technische Universität Dresden Medizinizche Fakultät Carl …, priority 2004, published 2009)
